The target in test [1] is T1, mouse GPR37 (native, on peritoneal macrophages and in tissues of wild-type mice) (mouse, UniProt Q9QY42 27-600).
T1 sequence (looked up): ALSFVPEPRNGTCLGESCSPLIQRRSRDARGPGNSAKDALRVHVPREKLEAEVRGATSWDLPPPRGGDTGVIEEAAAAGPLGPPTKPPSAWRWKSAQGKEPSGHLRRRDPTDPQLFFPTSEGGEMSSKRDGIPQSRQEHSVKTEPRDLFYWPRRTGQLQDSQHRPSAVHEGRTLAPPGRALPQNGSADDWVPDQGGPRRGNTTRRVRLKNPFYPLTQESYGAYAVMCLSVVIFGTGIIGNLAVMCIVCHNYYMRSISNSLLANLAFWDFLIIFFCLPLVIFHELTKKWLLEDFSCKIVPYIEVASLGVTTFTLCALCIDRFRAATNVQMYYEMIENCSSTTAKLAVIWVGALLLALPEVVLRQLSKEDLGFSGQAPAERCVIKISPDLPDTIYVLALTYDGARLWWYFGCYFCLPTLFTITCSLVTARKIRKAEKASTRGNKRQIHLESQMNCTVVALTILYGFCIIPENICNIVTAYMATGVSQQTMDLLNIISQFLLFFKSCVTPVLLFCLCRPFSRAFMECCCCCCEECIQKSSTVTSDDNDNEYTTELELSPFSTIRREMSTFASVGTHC
The test can be described thus: cell-based or functional assay.

In test [2] the target is T2, human GPR37 (hGPR37-V5, expressed in transfected HEK293 cells) (human, UniProt O15354 27-613).
T2 sequence: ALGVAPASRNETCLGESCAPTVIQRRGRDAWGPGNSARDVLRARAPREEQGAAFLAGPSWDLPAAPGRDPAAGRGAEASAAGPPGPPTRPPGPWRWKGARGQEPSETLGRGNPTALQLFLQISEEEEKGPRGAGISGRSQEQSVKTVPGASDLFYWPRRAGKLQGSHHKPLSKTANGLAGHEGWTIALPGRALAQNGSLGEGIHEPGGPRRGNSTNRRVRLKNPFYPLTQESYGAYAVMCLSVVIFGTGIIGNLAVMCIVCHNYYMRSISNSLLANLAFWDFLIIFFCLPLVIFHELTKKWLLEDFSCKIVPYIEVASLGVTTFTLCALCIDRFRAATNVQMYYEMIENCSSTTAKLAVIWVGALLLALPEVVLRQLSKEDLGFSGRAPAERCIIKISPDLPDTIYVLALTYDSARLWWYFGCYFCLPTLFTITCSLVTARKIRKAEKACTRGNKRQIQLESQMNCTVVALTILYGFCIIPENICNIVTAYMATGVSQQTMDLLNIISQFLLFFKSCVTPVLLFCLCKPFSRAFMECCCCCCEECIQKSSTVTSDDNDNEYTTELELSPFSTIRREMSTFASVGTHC
The test can be described thus: cell-based or functional assay.

As to TALIDNNATEEILY [prosaposin-derived 14-mer peptide (TX14)], the “EC50 of iCa^2+ increase in mouse peritoneal macrophages (Fluo-4AM calcium imaging)” value in test [1] is 0.302 µM. The “EC50 of iCa^2+ increase in HEK293 cells transfected with human GPR37 (Fura-2AM calcium imaging)” value in test [2] turned out to be 0.407 µM.

For the origin of these results see patent US20210228499A1 (DUKE UNIVERSITY, published 2021).
